Measurements taken from article PMC3138748, “A Small Peptide Modeled after the NRAGE Repeat Domain Inhibits XIAP-TAB1-TAK1 Signaling for NF-κB Activation and Apoptosis in P19 Cells” (PLoS ONE, 2011).

Columns and labels:
Assay in all cases: FRET or BRET; donor dequenching ECFP:EYFP FRET, confocal; co-transfected 293T cells, fixed with 4% paraformaldehyde 48 h after transfection; no BMP ligand
Conditions in all cases: partners not purified
[1] = target: T1, ECFP-XIAP (UniProt Q60989 1-496)
T1 construct: also called C-X; source: 293T, co-transfected, in fixed cells; not shown: ECFP, N-terminal, kept
T1 sequence (Q60989 whole entry): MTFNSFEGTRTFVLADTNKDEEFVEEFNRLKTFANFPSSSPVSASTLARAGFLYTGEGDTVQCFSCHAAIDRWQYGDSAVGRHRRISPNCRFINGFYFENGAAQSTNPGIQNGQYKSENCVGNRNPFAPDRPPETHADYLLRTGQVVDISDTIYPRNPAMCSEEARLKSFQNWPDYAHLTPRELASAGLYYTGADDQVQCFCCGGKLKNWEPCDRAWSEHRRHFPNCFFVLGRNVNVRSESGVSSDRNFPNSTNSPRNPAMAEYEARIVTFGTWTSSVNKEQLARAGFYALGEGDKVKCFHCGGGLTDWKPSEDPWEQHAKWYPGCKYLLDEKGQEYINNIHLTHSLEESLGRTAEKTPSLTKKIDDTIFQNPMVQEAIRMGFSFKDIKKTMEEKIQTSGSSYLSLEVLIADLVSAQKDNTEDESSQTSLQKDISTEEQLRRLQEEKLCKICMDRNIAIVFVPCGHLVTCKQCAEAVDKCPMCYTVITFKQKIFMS

[2] = target: T2, CFP-NRAGE (full-length NRAGE) (UniProt Q9ES73 1-775)
T2 construct: NRAGE (MAGE-D1), full length; the cloning of this construct is not described; also called C-NR; source: 293T, co-transfected, in fixed cells
T2 sequence (looked up): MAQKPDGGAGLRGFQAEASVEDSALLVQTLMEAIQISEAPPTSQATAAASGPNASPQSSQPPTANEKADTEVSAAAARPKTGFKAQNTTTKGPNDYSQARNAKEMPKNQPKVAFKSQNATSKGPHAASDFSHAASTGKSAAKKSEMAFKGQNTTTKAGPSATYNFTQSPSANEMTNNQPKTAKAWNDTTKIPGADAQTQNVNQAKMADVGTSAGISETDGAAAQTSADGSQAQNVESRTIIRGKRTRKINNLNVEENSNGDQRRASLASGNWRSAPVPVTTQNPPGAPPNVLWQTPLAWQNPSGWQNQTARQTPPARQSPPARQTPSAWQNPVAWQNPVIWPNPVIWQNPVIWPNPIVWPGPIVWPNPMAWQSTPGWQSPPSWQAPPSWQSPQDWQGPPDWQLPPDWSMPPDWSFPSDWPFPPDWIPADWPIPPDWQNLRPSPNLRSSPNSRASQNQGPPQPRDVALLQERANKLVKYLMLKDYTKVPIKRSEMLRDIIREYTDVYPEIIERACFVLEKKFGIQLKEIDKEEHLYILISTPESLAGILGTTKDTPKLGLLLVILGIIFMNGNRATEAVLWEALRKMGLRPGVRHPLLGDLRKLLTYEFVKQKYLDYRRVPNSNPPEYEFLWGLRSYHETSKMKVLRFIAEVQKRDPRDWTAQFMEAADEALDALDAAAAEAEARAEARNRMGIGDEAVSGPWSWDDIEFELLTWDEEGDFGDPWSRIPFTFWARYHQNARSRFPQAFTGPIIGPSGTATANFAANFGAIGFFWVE

[3] = target: T3, EYFP-XIAP (UniProt Q60989 1-496)
T3 construct: also called Y-X; source: 293T, co-transfected, in fixed cells; not shown: EYFP, N-terminal, kept
T3 sequence (Q60989 whole entry): as the sequence (Q60989 whole entry) above

[4] = target: T4, YFP-NRAGE (full-length NRAGE) (UniProt Q9ES73 1-775)
T4 construct: NRAGE (MAGE-D1), full length; the cloning of this construct is not described; also called Y-NR; source: 293T, co-transfected, in fixed cells
T4 sequence (looked up): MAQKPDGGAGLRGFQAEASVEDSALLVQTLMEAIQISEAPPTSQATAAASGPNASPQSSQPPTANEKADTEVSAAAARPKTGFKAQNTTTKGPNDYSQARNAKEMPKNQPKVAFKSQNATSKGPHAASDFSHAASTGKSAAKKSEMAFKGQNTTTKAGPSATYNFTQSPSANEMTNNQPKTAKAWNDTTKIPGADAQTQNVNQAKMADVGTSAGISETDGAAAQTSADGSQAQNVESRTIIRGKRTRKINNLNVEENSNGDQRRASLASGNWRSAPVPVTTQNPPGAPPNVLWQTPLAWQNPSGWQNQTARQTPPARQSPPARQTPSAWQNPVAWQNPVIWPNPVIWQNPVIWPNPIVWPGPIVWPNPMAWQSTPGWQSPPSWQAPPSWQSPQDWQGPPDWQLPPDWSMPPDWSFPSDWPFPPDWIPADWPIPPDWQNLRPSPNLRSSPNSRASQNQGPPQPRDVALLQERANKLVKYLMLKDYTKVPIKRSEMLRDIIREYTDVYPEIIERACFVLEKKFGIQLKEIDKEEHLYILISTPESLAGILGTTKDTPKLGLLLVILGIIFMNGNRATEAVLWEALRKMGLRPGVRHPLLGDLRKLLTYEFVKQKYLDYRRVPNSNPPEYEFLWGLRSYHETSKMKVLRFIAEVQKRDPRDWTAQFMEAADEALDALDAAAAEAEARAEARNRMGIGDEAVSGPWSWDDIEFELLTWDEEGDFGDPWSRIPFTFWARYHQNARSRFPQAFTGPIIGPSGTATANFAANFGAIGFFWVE

Row | Binder | average peak energy transfer efficiency (FRET) [1] | average peak energy transfer efficiency (FRET) [2] | average peak energy transfer efficiency (FRET) [3] | average peak energy transfer efficiency (FRET) [4]
1 | PPAWQTPPAWQTPPAWQTPPAWQT (four repeats of the final consensus hexapeptide PPAWQT of the NRAGE repeat domain; also called pep-Y; NRAGE peptide DNA-YFP; source: 293T, co-transfected, in fixed cells; not shown: EYFP, C-terminal, kept) [NRAGE peptide-YFP (NRAGE peptide DNA in pEYFP-N1)] | 0.34% | 0.36% |  | 
2 | PPAWQTPPAWQTPPAWQTPPAWQT (four repeats of the final consensus hexapeptide PPAWQT of the NRAGE repeat domain; also called pep-C; NRAGE peptide DNA-CFP; source: 293T, co-transfected, in fixed cells; not shown: ECFP, C-terminal, kept) [NRAGE peptide-CFP (NRAGE peptide DNA in pECFP-N1)] |  |  | 0.46% | 0.41%
